Publication PMC11575137 (BMC Biology, 2024)

Target: biotinylated GTP-loaded KRAS (recombinant human KRAS loaded with GppCp) (human, UniProt P01116 1-189)
Test: BLI

Chain of biotinylated GTP-loaded KRAS (recombinant human KRAS loaded with GppCp) (P01116 whole entry): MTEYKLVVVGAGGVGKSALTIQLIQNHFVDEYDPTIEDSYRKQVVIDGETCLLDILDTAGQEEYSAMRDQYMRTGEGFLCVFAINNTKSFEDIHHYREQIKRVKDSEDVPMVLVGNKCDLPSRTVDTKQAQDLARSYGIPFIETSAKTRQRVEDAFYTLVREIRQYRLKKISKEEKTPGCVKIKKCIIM

Binder	Kd
DVKVFSEDGTSKVVE [peptide_(GRB10)]	78 µM
VVNVGGKTVK [peptide_(RAB4B)]	84 µM
VIKVYSEDETSRALD [peptide_(GRB14)]	87 µM
IVRVFLPNKQRTVVP [peptide_(BRAF)]	150 µM
